Consider 15 sequences from a protein production outcome set (Wang et al. 2014).

The data set can be described thus: label from the status in PepcDB records.
For “MPKVSVVIPAYNAMPYLPETLESVLRQTYHDFEVVVVNDGSSDNTEEWVSQILDPRLKLISQANQGLAGARNTGIVNASGEYIAFLDADDIWEPTKLAKQVSVLDENPTVGLVYTWVAYIDEQGKSTGKIFKNQVEGYVWPQLTEHNIVECGSVALVRRVCFEKMGLFDRNLGSYVEDWDMWLRIATSYDFKVVKEALVYYRQRSNSASKNWEAMAHSFAIVIEKAFATASQDLQVLKNKSYGFTYLCLAWKPLQSFQKDYQKSREFCQQAVAYYPSLRFSQEYIRLSIAINLMRWFGADGYSKLLPLFHTMRRVKLALQK”, the protein production entry is listed as “failed”.

Regarding “MPKVSVVTGFYNRCEHLERTIESILNQTYSDFELIVFDDASTDGTASRLLELKEKYDDPRFRFIIHEENKGFVKGLSEAISGAKGQYIAVQGSGDVSLPRRLELQVEFLDANPSVGAVGGAIYNIQEDTGTRNPQRFEKPIATFDDLLTSNPFTHGEVMYRLDLYKSIGGYRSGFTFAQDRDLWLRMAKKADLGIIPDFLYHRYTLLDGVSFVPDKTIRQRCFSEAAVRLALMPEEEGALAYSRLEAEGPTAVVPIADRAVQKFVPKAAIRLCLYGAPETGLHMARDYIQNPLRRTIVVVLISIYSSRLIKPLQDILYKSIFKGVSISKPIKSSLVKFTRRIQGK”, the protein production result was “failed”.

“MPLCLKINKKHGEQTRRILIENNLLNKDYKITSEGNYLYLPIKDVDEDILKSILNIEFELVDKELEEKKIIKKPSFREIISKKYRKEIDEGLISLSYDVVGDLVILQISDEVDEKIRKEIGELAYKLIPCKGVFRRKSEVKGEFRVRELEHLAGENRTLTIHKENGYRLWVDIAKVYFSPRLGGERARIMKKVSLNDVVVDMFAGVGPFSIACKNAKKIYAIDINPHAIELLKKNIKLNKLEHKIIPILSDVREVDVKGNRVIMNLPKFAHKFIDKALDIVEEGGVIHYYTIGKDFDKAIKLFEKKCDCEVLEKRIVKSYAPREYILALDFKINKK”: the protein production result is listed as “not failed”.

For “MPLPPSNGMGTAALVLGIISTVVFCLWPLAIVMGVLSVVFGVIGRRRARRGEATNAGQALAGIICGAVGIVLGVAFMVIIFAAAESSSDPWSTTDDSYSTSLVVHADR”, the protein production entry is listed as “failed”.

For the sequence “MPLSYLSPSSSEERSDDPSKYDGDFGVPQICFCGKQLDLGWDLAVHEQCFCIDKRFGEHRELIQNAFKFGGDSNRLQINQIRAEIEDLKDRLDKKDAEITRLMDALGKK”, the protein production result is recorded as “failed”.

Consider “MPLVLDLARPVSEEELRRLSELNPGYQWERSPEGRLWVSPTGGESGRRSLQLAYQLARWNEERGLGVVFDSSTGFKFPDGSILSPDAAFVERGAWEALSEAEREGFPPLAPKAVFEVRSASQDPEELRAKMGIYLRNGVLLGVLVDPYARAVEVFRPGKPPLRLEGVERVSLDPELPGFALSLPPLW”, for which the protein production result is listed as “not failed”.

“MPMPTMSQAPHSVRPLNRGHWIATYFIGVAGLSLALMLVLNLILLTTSQNPGKALLDSLSFSVAVLMVSLVLITLIAALPCILFFWLAQRFTWRHLWIYLVSGALAAQFAIPVMTKLLPELFNLPHGVSAALHYLQLASMFGGCGVFMGGLFWWRSGRHLR”: the protein production result is “failed”.

For the sequence “MPMTVVSGRFSTALLPTCFSLSRLHSVKYAAQRRVVFVSRSAHASSASVSVETNSNSNVDFVIEKKDKNRGEKKILACPICYNSLAWISQPNGLIESAASGIQVQCNTCKRSYSGNETHLDLAVASGSKRYSEPMPLSTELFRTPLVSFLYERGWRQNFIWGGFPGPEKEFEMAKAYLKPVLGGNIIDASCGSGMFSRLFTRSDLFSLVIALDYSENMLRQCYELLNKEENFPNKEKLVLVRADIARLPFLSGSVDAVHAGAALHCWPSPSSAVAEISRVLRPGGVFVATTFIYDGPFSFIPFLKNLRQEIMRYSGSHIFLNERELEDICKACGLVNFTRVRNGPFIMLSATKPS”, the protein production entry is recorded as “failed”.

On to “MPNMGIEKLYVSQQLTDSAAGMTFTKPQYYKYVQELSLKPKVNSASAYAENRKVDQDTQFDSCDVSINLFQMTSSQRAFMLGQSLAGGGGAIGALNDKAPWITLLYKAPIKVDDTIYYRYGVIYKTQFQPPDDDYKTTEGKPDFSQVPKISGSAQPTEWSFKDGKLEKHPWEWHVDTCDPNCPENIDDTWFNSVSIPSLVTYGSLSLSASSPKDGATGISLDTKPSLTFNNPIMNATSILLYNVSDGATVNTTTSSDSSGKIITITPSTNLVANKNYVLVVQDVTDLYGQTLDTQLIRFTTATAASLEHHHHHH”, for which the protein production entry is “not failed”.

With “MPNPRRIVFGDVHGHFDALTALFEAIAPNERDGVYFVGDLIDRGPESAKVVDFVMENKYHCLLGNHEQMMLDAVGGFNFSPQLLHAWIYSGGKSTLESYEHQIPQSHVDWMRNLPLYLDLGDVWLVHAGVDPRLPIEEQGEAQFCWIRDEFHRYPYPYFANKLIITGHTITFTFANVEPGKLVSGPGWLDIDTGAYHPKSGWLTALELNNQEVYQAHIFTNEVRRLPLEDAVVPLPPQNLHRLEHHHHHH”, the protein production entry is “failed”.

For “MPNYINYPSWLHPEVIQGIPITWYSLSYILIILISYKFIWYQIQSDNVDIKKEDYEIFMFSLVLGAILGGRLASTLVYDKSGIYYSNPWLILLPFDQHWNFTGFRGMAIHGGFLGAIIAPLITINTNLKNTNVQKYFLKLTDYGSIAFSSGYILGRLANFANAELYGRVMKGGIIFPNAEPFDTNIPGVKEFASSVGLEISPHDLLINLPRIPSQLIEGFFEGPVTFLLLWFLFKKIKKYDGFIFGVYVMLYAFFRFFIEYLREPDKELGFIITYKPITSLSEFSFLNISMGQILSLTLMLSGLIWIIVTKKIADKKIKNNTNLAYKN”, the protein production entry was “failed”.

For the sequence “MPPAPVFLLLAAGASRRMRGADKLMEPVAGEPLLRLQARRGIAAGLAVLVTLPPDRPERWAALEGLAVQRLPVPDAAEGLAASIRAGVAAAPPDAAVLLLLADLPEIEATDLAQMAALHREAPKALLRATTADGRPGHPILFPADLRPELQALKGDQGARRILERAAGRLRLVPLAGTRAVTDLDTPEDWALWRARTGHLEHHHHHH”, the protein production result is given as “failed”.

Consider “MPPHASQVSVVVIGYDDAAHVTDAVRSALAQGPAVREVIAVDDCSSDGSPGLLDALAVEDTRVRVLRREVNSGGCGTPRNDGIDAATAPYTMFLDSDDMLPPGAVEALLAAADRHGAQVAAGLCVRRELPSGREVPWQPELYTEPALVPHPARLRRLVHDTLCVNKLYRTDFLREHAIRFPDGRFPYEDFVFSARVLAAGPRMALVPDTVYVWHVRRSAERLSISLDRAGIDNWQARMAAAAQAYDILLGAGEKRLARAARAKFLDHELRMYTRELDLRGTEYRREWWTLTRAYLSAFDAAEFALAPAPGRVIARVVLAAEEPRDLPRLKELAARPARLHPPYARAADGTPVWSADLPQVPLDHVLVRPMHLLPVAVDAELRPRARGTRLRLRLHELYGRVADAGPASVNLEFVHREGGRVGTAATAPLLADPEFDTWSAEVPVDLAALGSGTWDLRLTLRFHDGTSRDTTAHAVAGPGLLRRGVVPSGRHGVLLVQPYATHSGALALRVATGIQGVTSVMGRRLRRLLHW”, for which the protein production result is listed as “failed”.

With “MPPLCPLPTGGKRTNLHQYRHATRAMTDRLSPERRRYLMQQVRSKNTRPEKAVRSLLHSIGYRFRLHRKDLPGTPDIVFPSRRLVLFVHGCFWHGHGCRIGQLPKSRLDYWSPKIEANRARDQRKEAALAAEGWRVAVVWQCELSDLGALEARLRNILDPS”, the protein production result is “failed”.

On to “MPPPLRVLILEDSEDDYFLLVRALKREFDIVPERVDSEESLRANLCEKRWDIVLSDYFMPQFDALAALTLIQSMNLDIPFIIVSGKIGEFEAVKAMKAGAHDYIMKGDYTRLIPAIRRELREAVIRQEQRRTDHELREQLHFRQALIDAIPAPIYFMDTTGIFLGCNKAFEAFSGHTQDEIVGKTIYDLMPPSLAKHTDSADRELFEHGGIQIYESVISFADGALHDVIFYKATFTTTEKNIGGLVGTILDITERKQTEERLRYMSTHDTLTGLYNRAYFQEEMERLEQGRQFPVSVVVFDVDRLKYVNDSQGHAAGDELLIRAALVLKGAFRAEDVVARIGGDEFAVLLPSADADVVQEALRRVIGKIEQSQTEDHPVPLSISFGAATASKGDRLEEVLKLADRRMYENKFKKCCVLPA”, for which the protein production entry is listed as “failed”.
